The source of these data is patent US20030119038A1, “NARC1, novel subtilase-like homologs” (priority 1999, published 2003).

In assay [1] the test system is cerebellar granule neurons (CGNs). Description: Apoptosis after transient expression of NARC1-EGFP constructs in CGNs, Laser-Scanning Cytometry. Type of assay: cell-based, rat. Particulars: for BAF sensitivity of induced cell death: CGNs, 100 μM BAF; for Resulting Cell Death Activity: EGFP construct transiently expressed in CGNs, percentage of GFP-positive cells undergoing apoptosis. The text has this: Cerebellar granule neurons (CGNs) were transfected with a NARC1-enhanced green fluorescent protein (EGFP) expression construct (with the EGFP sequences located at the carboxy terminus of the fusion protein). Unless otherwise indicated, the construct utilized in the following experiments contained 2073 base pairs of the rat NARC1 transcript set forth in FIG. 5. Specifically, this corresponds to nucleotides 205-2277 and amino acid residues 56-746 of SEQ ID NO:4 and SEQ ID NO:3, respectively. The polypeptide sequence encoded by the NARC1 insert utilized herein has been set forth as SEQ ID NO:9 herein. The nucleotide sequence of this insert has been set forth as SEQ ID NO:10.
To investigate NARC1-mediated neuronal cell death, transient expression of the EGFP clones was carried out in cerebellar granule neurons (CGNs). These studies are set forth in detail as follows.

Another assay has as its system NARC1. Put plainly: Autoprocessing of NARC1 transiently expressed in COS-7 cells, Western blotting. Type of assay: cell-based, rat. Particulars: C-terminal myc/His fusion transiently expressed in COS-7 cells, 60 kD processing product on Western blot. On the procedure: The wild-type NARC1-myc/His clone was transiently expressed in COS-7 cells. The cells were then harvested, lysed, and the protein extracted. Polyacrylamide gel electrophoresis was then carried out on the protein extracts, followed by Western blotting. The resulting membranes were probed using both anti-myc- and NARC1-specific antibodies. Routine techniques and protocols were followed. See, e.g., Ausubel et al.(1998), supra.
This cleavage event maps to approximately the junction between the pro-domain and the enzymatic domain.
Autoprocessing of NARC1 was investigated as follows. COS-7 cells were co-transfected with the following EGFP and myc plasmids: (A) wild-type NARC1-myc and wild-type NARC1-EGFP; (B) S385A NARC1-myc and S385A NARC1-EGFP; and (C) wild-type NARC1-myc and S385A NARC1-myc. The cells were then harvested, lysed, and the protein extracted. Polyacrylamide gel electrophoresis was then carried out on the protein extracts, followed by Western blotting. The resulting membranes were sequentially probed using first the anti-myc and then the anti-EGFP monoclonal antibodies (Abs). Thus, the experiment allowed sequential detection of the separate NARC1 products encoded from the two co-transfected plasmids.
As indicated above, a series of C-terminal truncation mutants were generated. The truncation NARC1-myc/His clones were transiently expressed in COS-7 cells. The cells were then harvested, lysed, the protein extracted, and polyacrylamide gel electrophoresis carried out on the protein extracts. Western analysis was then carried out using both anti-myc and NARC1-specific antibodies.

“Also recorded” adds a separate entry of the source.

B1: C-terminal truncation M425: NARC1 terminating at residue M425; all of the cysteine-rich region removed (protein)
chain: MGIRCSTWLRWPLSPQLLLLLLLCPTGSRAQDEDGDYEELMLALPSQEDSLVDEASHVATATFRRCSKEAWRLPGTYVVVLMEETQRLQVEQTAHRLQTWAARRGYVIKVLHVFYDLFPGFLVKMSSDLLGLALKLPHVEYIEEDSLVFAQSIPWNLERIIPAWQQTEEDSSPDGSSQVEVYLLDTSIQSGHREIEGRVTITDFNSVPEEDGTRFHRQASKCDSHGTHLAGVVSGRDAGVAKGTSLHSLRVLNCQGKGTVSGTLIGLEFIRKSQLIQPSGPLVVLLPLAGGYSRILNTACQRLARTGVVLVAAAGNFRDDACLYSPASAPEVITVGATNAQDQPVTLGTLGTNFGRCVDLFAPGKDIIGASSDCSTCYMSQSGTSQAAAHVAGIVAMMLNRDPALTLAELRQRLILFSTKDVINM
modifications: mutant of rat sequence truncated sequence ends at amino acid Met 425
notes: NARC1 terminating at residue M425; all of the cysteine-rich region removed
Consider B1, for which, in assay [1], the “BAF sensitivity of induced cell death” value is reported as “insensitive” and the “Resulting Cell Death Activity” value is on record as “Induces wild type”. The “Autoprocessing Activity” value with NARC1 was “Normal processing”.

B2: C-terminal truncation Q453: NARC1 terminating at residue Q453; most of the CRR removed (protein)
chain: MGIRCSTWLRWPLSPQLLLLLLLCPTGSRAQDEDGDYEELMLALPSQEDSLVDEASHVATATFRRCSKEAWRLPGTYVVVLMEETQRLQVEQTAHRLQTWAARRGYVIKVLHVFYDLFPGFLVKMSSDLLGLALKLPHVEYIEEDSLVFAQSIPWNLERIIPAWQQTEEDSSPDGSSQVEVYLLDTSIQSGHREIEGRVTITDFNSVPEEDGTRFHRQASKCDSHGTHLAGVVSGRDAGVAKGTSLHSLRVLNCQGKGTVSGTLIGLEFIRKSQLIQPSGPLVVLLPLAGGYSRILNTACQRLARTGVVLVAAAGNFRDDACLYSPASAPEVITVGATNAQDQPVTLGTLGTNFGRCVDLFAPGKDIIGASSDCSTCYMSQSGTSQAAAHVAGIVAMMLNRDPALTLAELRQRLILFSTKDVINMAWFPEDQRVLTPNRVATLPPSTQETGGQ
modifications: mutant of rat sequence truncated sequence ends at amino acid Gln453
For the molecule B2, in assay [1], the “BAF sensitivity of induced cell death” value is given as “insensitive” and the “Resulting Cell Death Activity” value is on record as “Induces wild type”. Moreover, the “Autoprocessing Activity” value in the assay on NARC1 is “Normal processing”.

B3: H225W: Full-length NARC1 point mutant; mutation of the active site histidine (protein)
chain: MGIRCSTWLRWPLSPQLLLLLLLCPTGSRAQDEDGDYEELMLALPSQEDSLVDEASHVATATFRRCSKEAWRLPGTYVVVLMEETQRLQVEQTAHRLQTWAARRGYVIKVLHVFYDLFPGFLVKMSSDLLGLALKLPHVEYIEEDSLVFAQSIPWNLERIIPAWQQTEEDSSPDGSSQVEVYLLDTSIQSGHREIEGRVTITDFNSVPEEDGTRFHRQASKCDSWGTHLAGVVSGRDAGVAKGTSLHSLRVLNCQGKGTVSGTLIGLEFIRKSQLIQPSGPLVVLLPLAGGYSRILNTACQRLARTGVVLVAAAGNFRDDACLYSPASAPEVITVGATNAQDQPVTLGTLGTNFGRCVDLFAPGKDIIGASSDCSTCYMSQSGTSQAAAHVAGIVAMMLNRDPALTLAELRQRLILFSTKDVINMAWFPEDQRVLTPNRVATLPPSTQETGGQLLCRTVWSAHSGPTRTATATARCAPEEELLSCSSFSRSGRRRGDRIEAIGGQQVCKALNAFGGEGVYAVARCCLLPRVNCSIHNTPAARAGPQTPVHCHQKDHVLTGCSFHWEVENLRAQQQPLLRSRHQPGQCVGHQEASVHASCCHAPGLECKIKEHGIAGPAEQVTVACEAGWTLTGCNVLPGASLPLGAYSVDNVCVARIRDAGRADRTSEEATVAAAICCRSRPSAKASWVHQ
modifications: mutant of rat sequence mutating amino acid His225Trp of SEQ ID NO9
Turning to B3, in assay [1], the “Resulting Cell Death Activity” value is “essentially a wild-type phenotype; also recorded: no effect on the cell death phenotype”. Also, in the assay on NARC1, the “Autoprocessing Activity” value is reported as “reduces autoprocessing; also recorded: Reduced processing”.

B4: C-terminal truncation V507: NARC1 terminating at residue V507; much of the CRR removed (protein)
chain: MGIRCSTWLRWPLSPQLLLLLLLCPTGSRAQDEDGDYEELMLALPSQEDSLVDEASHVATATFRRCSKEAWRLPGTYVVVLMEETQRLQVEQTAHRLQTWAARRGYVIKVLHVFYDLFPGFLVKMSSDLLGLALKLPHVEYIEEDSLVFAQSIPWNLERIIPAWQQTEEDSSPDGSSQVEVYLLDTSIQSGHREIEGRVTITDFNSVPEEDGTRFHRQASKCDSHGTHLAGVVSGRDAGVAKGTSLHSLRVLNCQGKGTVSGTLIGLEFIRKSQLIQPSGPLVVLLPLAGGYSRILNTACQRLARTGVVLVAAAGNFRDDACLYSPASAPEVITVGATNAQDQPVTLGTLGTNFGRCVDLFAPGKDIIGASSDCSTCYMSQSGTSQAAAHVAGIVAMMLNRDPALTLAELRQRLILFSTKDVINMAWFPEDQRVLTPNRVATLPPSTQETGGQLLCRTVWSAHSGPTRTATATARCAPEEELLSCSSFSRSGRRRGDRIEAIGGQQV
modifications: mutant of rat sequence truncated mutant ends at amino acid Val507
notes: NARC1 terminating at residue V507; much of the CRR removed
With B4, the “BAF sensitivity of induced cell death” value in assay [1] is “insensitive”. For the same molecule, the “Resulting Cell Death Activity” value in assay [1] is “Induces wild type”. Also, the entries for the “Autoprocessing Activity” value in the assay on NARC1, in the assay with NARC1 (listed as V507 C-terminal truncation mutant) and in the assay with NARC1 (listed as V507 truncation) were “Marked increase in”, “markedly increased level of autoprocessing” and “increased rate of processing”, respectively.

B5: Deletion of residues Q218-A392, inclusive: NARC1 subtilase deletion, small; removes much of the subtilase domain including active site residues (protein)
chain: MGIRCSTWLRWPLSPQLLLLLLLCPTGSRAQDEDGDYEELMLALPSQEDSLVDEASHVATATFRRCSKEAWRLPGTYVVVLMEETQRLQVEQTAHRLQTWAARRGYVIKVLHVFYDLFPGFLVKMSSDLLGLALKLPHVEYIEEDSLVFAQSIPWNLERIIPAWQQTEEDSSPDGSSQVEVYLLDTSIQSGHREIEGRVTITDFNSVPEEDGTRFHRGIVAMMLNRDPALTLAELRQRLILFSTKDVINMAWFPEDQRVLTPNRVATLPPSTQETGGQLLCRTVWSAHSGPTRTATATARCAPEEELLSCSSFSRSGRRRGDRIEAIGGQQVCKALNAFGGEGVYAVARCCLLPRVNCSIHNTPAARAGPQTPVHCHQKDHVLTGCSFHWEVENLRAQQQPLLRSRHQPGQCVGHQEASVHASCCHAPGLECKIKEHGIAGPAEQVTVACEAGWTLTGCNVLPGASLPLGAYSVDNVCVARIRDAGRADRTSEEATVAAAICCRSRPSAKASWVHQ
modifications: mutant of rat sequence deletion mutant removes Gln218-Ala392, inclusive, of SEQ ID NO9
As for B5, the “Resulting Cell Death Activity” value in assay [1] is “Reduced activity”. The “Autoprocessing Activity” value in the assay on NARC1 is recorded as “Absence of processing”.

B6: Deletion of residues L147-M425, inclusive: NARC1 subtilase deletion, large; removes entire subtilase domain (protein)
chain: MGIRCSTWLRWPLSPQLLLLLLLCPTGSRAQDEDGDYEELMLALPSQEDSLVDEASHVATATFRRCSKEAWRLPGTYVVVLMEETQRLQVEQTAHRLQTWAARRGYVIKVLHVFYDLFPGFLVKMSSDLLGLALKLPHVEYIEEDSAWFPEDQRVLTPNRVATLPPSTQETGGQLLCRTVWSAHSGPTRTATATARCAPEEELLSCSSFSRSGRRRGDRIEAIGGQQVCKALNAFGGEGVYAVARCCLLPRVNCSIHNTPAARAGPQTPVHCHQKDHVLTGCSFHWEVENLRAQQQPLLRSRHQPGQCVGHQEASVHASCCHAPGLECKIKEHGIAGPAEQVTVACEAGWTLTGCNVLPGASLPLGAYSVDNVCVARIRDAGRADRTSEEATVAAAICCRSRPSAKASWVHQ
modifications: mutant of rat sequence deletion mutant removes amino acids Leu147-Met425, inclusive, of SEQ ID NO9
notes: NARC1 subtilase deletion, large; removes entire subtilase domain
Regarding B6, the “Resulting Cell Death Activity” value in assay [1] is “Reduced activity”. The “Autoprocessing Activity” value with NARC1 is given as “Absence of processing”.
